Measurements from article PMC9637919.
Where two headings read alike, the source gives them in different places.

T1: Csy complex (type I-F surveillance complex) (UniProt Q02ML9;Q02MM0;Q02MM1;Q02MM2 1-434;1-327;1-342;1-187)
T1 sequence 1: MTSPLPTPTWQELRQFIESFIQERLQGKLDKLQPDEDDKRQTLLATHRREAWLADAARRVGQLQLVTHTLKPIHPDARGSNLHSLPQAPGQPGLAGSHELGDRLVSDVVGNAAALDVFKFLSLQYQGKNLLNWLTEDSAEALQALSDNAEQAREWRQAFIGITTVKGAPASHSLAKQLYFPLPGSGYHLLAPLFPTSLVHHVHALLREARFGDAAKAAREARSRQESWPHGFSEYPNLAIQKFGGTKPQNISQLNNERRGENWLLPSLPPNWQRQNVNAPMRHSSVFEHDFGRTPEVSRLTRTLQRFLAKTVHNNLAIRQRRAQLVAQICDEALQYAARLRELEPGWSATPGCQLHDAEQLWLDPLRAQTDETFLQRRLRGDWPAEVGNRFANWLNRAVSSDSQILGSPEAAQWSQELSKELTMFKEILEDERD
T1 sequence 2: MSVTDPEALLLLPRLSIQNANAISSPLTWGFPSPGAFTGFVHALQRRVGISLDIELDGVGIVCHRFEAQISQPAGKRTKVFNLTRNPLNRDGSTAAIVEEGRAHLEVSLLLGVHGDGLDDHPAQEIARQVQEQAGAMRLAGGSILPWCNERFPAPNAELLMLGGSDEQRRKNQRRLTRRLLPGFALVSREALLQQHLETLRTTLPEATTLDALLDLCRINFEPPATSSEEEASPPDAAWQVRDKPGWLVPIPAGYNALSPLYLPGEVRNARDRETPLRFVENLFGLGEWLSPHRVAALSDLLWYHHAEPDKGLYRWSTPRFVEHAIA
T1 sequence 3: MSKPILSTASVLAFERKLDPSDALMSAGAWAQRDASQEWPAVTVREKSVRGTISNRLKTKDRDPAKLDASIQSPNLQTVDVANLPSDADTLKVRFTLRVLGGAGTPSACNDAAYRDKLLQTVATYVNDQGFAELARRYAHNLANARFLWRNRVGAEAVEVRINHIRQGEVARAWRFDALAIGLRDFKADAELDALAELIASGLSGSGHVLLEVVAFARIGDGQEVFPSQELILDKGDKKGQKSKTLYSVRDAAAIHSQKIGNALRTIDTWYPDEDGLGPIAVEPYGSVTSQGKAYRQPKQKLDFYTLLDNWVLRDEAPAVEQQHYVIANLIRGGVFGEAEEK
T1 sequence 4: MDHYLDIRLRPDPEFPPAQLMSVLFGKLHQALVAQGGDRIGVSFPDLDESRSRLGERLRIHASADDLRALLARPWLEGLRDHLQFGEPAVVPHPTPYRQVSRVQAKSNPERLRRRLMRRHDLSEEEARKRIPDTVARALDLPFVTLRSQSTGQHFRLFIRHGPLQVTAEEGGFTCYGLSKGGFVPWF


Assays:
Experiment in all cases: EMSA
[1] = biological target: T1, Csy complex (type I-F surveillance …)
[2] = biological target: T2, Csy complex (type I-F surveillance complex);Cas2/3 (;, UniProt Q02ML9;Q02MM0;Q02MM1;Q02MM2;Q02ML8 1-434;1-327;1-342;1-187;1-1076, |)
[3] = biological target: Csy M (Cas8f R299G/R302A);Cas2/3 (;, UniProt Q02ML9;Q02MM0;Q02MM1;Q02MM2;Q02ML8 1-434;1-327;1-342;1-187;1-1076, R299G;R302A|)
[4] = biological target: T2, Csy complex (type I-F surveillance …); remark: listed apart in the source

Binder	Kd [1] [nM]	binding result [2]	binding result [3]	binding result [4]
54-bp target dsDNA, 5'-FAM TS (dsDNA) DNA 1: GGAAGCCATCCAGGTAGACGCGGACATCAAGCCCGCCGTGAAGGTGCAGCTGCT DNA 2: AGCAGCTGCACCTTCACGGCGGGCTTGATGTCCGCGTCTACCTGGATGGCTTCC	9.46 ± 0.82	binds		
54-bp dsDNA bubble, 5'-FAM TS (dsDNA) DNA 1: GGAAGCCATCCAGGTAGACGCGGACATCAAGCCCGCCGTGAAGGTGCAGCTGCT DNA 2: AGCAGCTGCACCAAGTGCCGCCGCTTGATGTCCGCGTCTACCTGGATGGCTTCC	8.15 ± 0.62		binds	binds
